According to publication PMC10250397:

Target: SERCA2-mTurquoise2 (UniProt P16615)
Experiment: FRET or BRET; three channel sensitized emission FRET on living HEK293-T cells, SERCA2-mTurquoise2 donor and GSK3β-sYFP2 acceptor, confocal microscope; normoxia or 60 min hypoxia followed by 30 min reoxygenation

Sequence of UniProt P16615 (P16615 whole entry): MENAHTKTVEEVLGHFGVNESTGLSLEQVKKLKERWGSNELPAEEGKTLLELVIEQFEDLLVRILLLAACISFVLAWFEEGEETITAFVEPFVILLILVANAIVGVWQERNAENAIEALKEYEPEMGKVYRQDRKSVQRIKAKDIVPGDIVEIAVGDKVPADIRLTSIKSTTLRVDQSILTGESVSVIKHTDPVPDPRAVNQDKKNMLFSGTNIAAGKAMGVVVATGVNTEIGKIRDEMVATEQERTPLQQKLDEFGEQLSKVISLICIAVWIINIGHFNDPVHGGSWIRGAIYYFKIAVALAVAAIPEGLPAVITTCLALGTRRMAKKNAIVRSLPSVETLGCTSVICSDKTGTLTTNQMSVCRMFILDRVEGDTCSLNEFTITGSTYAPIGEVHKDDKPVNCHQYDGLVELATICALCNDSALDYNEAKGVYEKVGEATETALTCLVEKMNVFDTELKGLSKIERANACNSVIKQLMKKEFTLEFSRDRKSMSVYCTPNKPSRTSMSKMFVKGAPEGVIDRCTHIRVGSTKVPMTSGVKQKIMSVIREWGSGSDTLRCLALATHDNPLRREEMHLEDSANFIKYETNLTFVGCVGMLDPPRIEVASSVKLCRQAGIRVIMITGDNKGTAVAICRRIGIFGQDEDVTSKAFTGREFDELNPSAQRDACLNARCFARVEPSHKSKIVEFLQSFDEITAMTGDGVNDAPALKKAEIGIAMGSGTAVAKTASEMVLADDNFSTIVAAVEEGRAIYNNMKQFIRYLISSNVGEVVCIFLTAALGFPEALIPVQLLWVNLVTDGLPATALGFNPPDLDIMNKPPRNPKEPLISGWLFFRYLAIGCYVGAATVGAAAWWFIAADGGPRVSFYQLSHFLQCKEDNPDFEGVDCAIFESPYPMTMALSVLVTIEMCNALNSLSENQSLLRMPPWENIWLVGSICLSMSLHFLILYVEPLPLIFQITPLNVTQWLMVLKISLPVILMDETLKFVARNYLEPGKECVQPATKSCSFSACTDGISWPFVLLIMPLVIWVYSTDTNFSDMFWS
Sequence of GSK3β-sYFP2 (P49841 whole entry): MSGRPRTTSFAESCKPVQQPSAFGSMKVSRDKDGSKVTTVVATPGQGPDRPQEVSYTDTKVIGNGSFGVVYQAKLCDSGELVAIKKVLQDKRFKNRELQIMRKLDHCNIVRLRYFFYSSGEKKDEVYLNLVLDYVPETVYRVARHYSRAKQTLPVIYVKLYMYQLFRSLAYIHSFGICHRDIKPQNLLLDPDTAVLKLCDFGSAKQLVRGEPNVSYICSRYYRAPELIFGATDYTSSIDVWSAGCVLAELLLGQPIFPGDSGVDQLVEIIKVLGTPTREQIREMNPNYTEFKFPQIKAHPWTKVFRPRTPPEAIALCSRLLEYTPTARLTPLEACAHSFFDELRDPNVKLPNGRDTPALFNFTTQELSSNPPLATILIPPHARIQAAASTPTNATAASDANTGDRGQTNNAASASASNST

Substance	FRET efficiency	fold change of FRET efficiency after H/R against normoxia
GSK3β-sYFP2 (from UniProt P49841 1-420) (living HEK293-T cells)	3.11%	
GSK3β-sYFP2 (from UniProt P49841 1-420) (enzyme)		3 fold
